According to publication PMC8240856 (The Journal of Cell Biology, 2021):

T1: His6-Vps4 (S. cerevisiae, UniProt P52917 1-437)
T1 sequence: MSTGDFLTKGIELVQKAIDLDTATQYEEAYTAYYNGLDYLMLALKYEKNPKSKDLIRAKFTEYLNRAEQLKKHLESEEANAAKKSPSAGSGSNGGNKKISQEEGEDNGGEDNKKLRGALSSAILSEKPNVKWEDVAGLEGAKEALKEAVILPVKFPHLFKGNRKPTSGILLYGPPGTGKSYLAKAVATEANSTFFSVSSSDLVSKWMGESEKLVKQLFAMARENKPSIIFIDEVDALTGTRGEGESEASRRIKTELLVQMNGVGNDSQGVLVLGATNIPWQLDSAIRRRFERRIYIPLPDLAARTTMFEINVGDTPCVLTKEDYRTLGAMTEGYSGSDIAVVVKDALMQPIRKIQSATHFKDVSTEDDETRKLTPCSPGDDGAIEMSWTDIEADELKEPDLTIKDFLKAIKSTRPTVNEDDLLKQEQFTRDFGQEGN


Target: T1, His6-Vps4
Test: pull-down

Binder	binding result
GST-Bro1V(370-709) (domain or fragment) DVYEKESIYSEEKATLLRKQVEETETANLEYSSFIEFTNLPRLLSDLEKQFSDGNIFSNTDTQGQLMRDQIQTWCKFIQTNEFRDIEEQMNKIVFKRKQILEILSALPNDQKENVTKLKSSLVAASNSDEKLFACVKPHIVEINLLNDNGKIWKKFDEFNRNTPPQPSLLDIDDTKNDKILELLKQVKGHAEDLRTLKEERSRNLSELRDEINNDDITKLLIINKGKSDVELKDLFEVELEKFEPLSTRIEATIYKQSSMIDDIKAKLDEIFHLSNFKDKSSGEEKFLEDRKNFFDKLQEAVKSFSIFASDLPKGIEFYDSLFNMSRDLAERVRVAKQTE	binds
Bro1 V domain (Bro1V; aa 370-709) (domain or fragment) DVYEKESIYSEEKATLLRKQVEETETANLEYSSFIEFTNLPRLLSDLEKQFSDGNIFSNTDTQGQLMRDQIQTWCKFIQTNEFRDIEEQMNKIVFKRKQILEILSALPNDQKENVTKLKSSLVAASNSDEKLFACVKPHIVEINLLNDNGKIWKKFDEFNRNTPPQPSLLDIDDTKNDKILELLKQVKGHAEDLRTLKEERSRNLSELRDEINNDDITKLLIINKGKSDVELKDLFEVELEKFEPLSTRIEATIYKQSSMIDDIKAKLDEIFHLSNFKDKSSGEEKFLEDRKNFFDKLQEAVKSFSIFASDLPKGIEFYDSLFNMSRDLAERVRVAKQTE	binds
Bro1V^M10 (K481D) (domain or fragment) DVYEKESIYSEEKATLLRKQVEETETANLEYSSFIEFTNLPRLLSDLEKQFSDGNIFSNTDTQGQLMRDQIQTWCKFIQTNEFRDIEEQMNKIVFKRKQILEILSALPNDQDENVTKLKSSLVAASNSDEKLFACVKPHIVEINLLNDNGKIWKKFDEFNRNTPPQPSLLDIDDTKNDKILELLKQVKGHAEDLRTLKEERSRNLSELRDEINNDDITKLLIINKGKSDVELKDLFEVELEKFEPLSTRIEATIYKQSSMIDDIKAKLDEIFHLSNFKDKSSGEEKFLEDRKNFFDKLQEAVKSFSIFASDLPKGIEFYDSLFNMSRDLAERVRVAKQTE	binds
Bro1V^M9 (T587D) (domain or fragment) DVYEKESIYSEEKATLLRKQVEETETANLEYSSFIEFTNLPRLLSDLEKQFSDGNIFSNTDTQGQLMRDQIQTWCKFIQTNEFRDIEEQMNKIVFKRKQILEILSALPNDQKENVTKLKSSLVAASNSDEKLFACVKPHIVEINLLNDNGKIWKKFDEFNRNTPPQPSLLDIDDTKNDKILELLKQVKGHAEDLRTLKEERSRNLSELRDEINNDDIDKLLIINKGKSDVELKDLFEVELEKFEPLSTRIEATIYKQSSMIDDIKAKLDEIFHLSNFKDKSSGEEKFLEDRKNFFDKLQEAVKSFSIFASDLPKGIEFYDSLFNMSRDLAERVRVAKQTE	binds
Bro1V^M4 (V505A, H508A, I512A) (domain or fragment) DVYEKESIYSEEKATLLRKQVEETETANLEYSSFIEFTNLPRLLSDLEKQFSDGNIFSNTDTQGQLMRDQIQTWCKFIQTNEFRDIEEQMNKIVFKRKQILEILSALPNDQKENVTKLKSSLVAASNSDEKLFACAKPAIVEANLLNDNGKIWKKFDEFNRNTPPQPSLLDIDDTKNDKILELLKQVKGHAEDLRTLKEERSRNLSELRDEINNDDITKLLIINKGKSDVELKDLFEVELEKFEPLSTRIEATIYKQSSMIDDIKAKLDEIFHLSNFKDKSSGEEKFLEDRKNFFDKLQEAVKSFSIFASDLPKGIEFYDSLFNMSRDLAERVRVAKQTE	binds

Target: T1, His6-Vps4
Test: pull-down
Remark: another data set of the same source

Binder	binding result
Bro1V^M8 (E686A, L691D) (domain or fragment, S. cerevisiae, UniProt P48582 370-709, looked up) DVYEKESIYSEEKATLLRKQVEETETANLEYSSFIEFTNLPRLLSDLEKQFSDGNIFSNTDTQGQLMRDQIQTWCKFIQTNEFRDIEEQMNKIVFKRKQILEILSALPNDQKENVTKLKSSLVAASNSDEKLFACVKPHIVEINLLNDNGKIWKKFDEFNRNTPPQPSLLDIDDTKNDKILELLKQVKGHAEDLRTLKEERSRNLSELRDEINNDDITKLLIINKGKSDVELKDLFEVELEKFEPLSTRIEATIYKQSSMIDDIKAKLDEIFHLSNFKDKSSGEEKFLEDRKNFFDKLQEAVKSFSIFASDLPKGIAFYDSDFNMSRDLAERVRVAKQTE	binds
